From article PMC6274577 (2016)
Where “and” joins values, the source holds several entries; their conditions need not be identical. Equal values may be shown once. Values belong to the molecule of their own block, whether it stands above or below them.

What was measured:
[1] = target: IL-11Rα (Mus musculus) (UniProt Q64385); assay: cell binding; conditions: cited from earlier work
[2] = target: sIL-11Rα ECD (Homo sapiens) (UniProt Q14626); assay: SPR; conditions: cited from earlier work
[3] = target: recombinant extracellular domain of human interleukin-11 receptor subunit α (M1-V363) with a fused polyhistidine tag at the C-terminus (human) (UniProt Q14626)
[4] = target: murine recombinant interleukin-11 (rIL-11), Mus musculus, mature protein lacking Pro1 (Mus musculus) (UniProt P47873); assay: SPR; biotinylated rIL-11 immobilised on NeutrAvidin NLC sensor chip (up to 2000 RU); 5-80 nM sIL-11Rα as analyte; 25 °C; PBS, 0.05% TWEEN 20, pH 7.4; heterogeneous ligand model (two ligand populations)
[5] = target: macaque recombinant interleukin-11 (rIL-11), Macaca fascicularis, mature protein lacking Pro1 (Macaca fascicularis) (UniProt P20808); assay: as above
[6] = target: T1, sIL-11Rα ECD (Homo sapiens, UniProt Q14626); assay: SPR
T1 chain: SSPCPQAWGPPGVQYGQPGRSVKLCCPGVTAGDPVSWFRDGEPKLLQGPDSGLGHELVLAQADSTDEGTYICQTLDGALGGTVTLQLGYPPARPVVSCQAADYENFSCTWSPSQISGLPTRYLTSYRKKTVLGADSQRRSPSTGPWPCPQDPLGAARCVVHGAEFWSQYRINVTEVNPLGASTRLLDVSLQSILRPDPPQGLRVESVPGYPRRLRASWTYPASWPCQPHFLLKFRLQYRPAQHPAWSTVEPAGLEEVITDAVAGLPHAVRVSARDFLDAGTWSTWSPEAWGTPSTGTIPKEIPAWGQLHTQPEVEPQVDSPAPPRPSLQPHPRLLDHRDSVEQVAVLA

Chain of IL-11Rα (Mus musculus) (Q64385 24-372): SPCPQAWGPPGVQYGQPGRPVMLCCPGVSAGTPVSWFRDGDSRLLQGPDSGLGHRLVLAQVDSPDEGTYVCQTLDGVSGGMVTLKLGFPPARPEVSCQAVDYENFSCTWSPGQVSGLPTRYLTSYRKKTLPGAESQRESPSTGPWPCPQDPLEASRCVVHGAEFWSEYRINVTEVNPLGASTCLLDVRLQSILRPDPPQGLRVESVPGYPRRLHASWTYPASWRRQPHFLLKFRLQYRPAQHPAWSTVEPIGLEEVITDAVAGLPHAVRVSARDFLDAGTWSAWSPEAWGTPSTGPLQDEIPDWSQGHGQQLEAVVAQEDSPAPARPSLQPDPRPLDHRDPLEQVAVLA

Molecule: IL-11 (from UniProt P47873)
Kd [1]: 10 nM

Molecule: IL-11 (from UniProt P20809)
Kd [2]: 21.9 nM and 7 nM

B1: recombinant extracellular domain of human interleukin-11 receptor subunit α (M1-V363) with a fused polyhistidine tag at the C-terminus (receptor)
chain: SSPCPQAWGPPGVQYGQPGRSVKLCCPGVTAGDPVSWFRDGEPKLLQGPDSGLGHELVLAQADSTDEGTYICQTLDGALGGTVTLQLGYPPARPVVSCQAADYENFSCTWSPSQISGLPTRYLTSYRKKTVLGADSQRRSPSTGPWPCPQDPLGAARCVVHGAEFWSQYRINVTEVNPLGASTRLLDVSLQSILRPDPPQGLRVESVPGYPRRLRASWTYPASWPCQPHFLLKFRLQYRPAQHPAWSTVEPAGLEEVITDAVAGLPHAVRVSARDFLDAGTWSTWSPEAWGTPSTGTIPKEIPAWGQLHTQPEVEPQVDSPAPPRPSLQPHPRLLDHRDSV
Kd1 (KD, ligand population 1) [4]: 2.2 nM
Kd2 (KD, ligand population 2) [4]: 14.6 nM
kd1 (koff, ligand population 1) [4]: 0.0007 s⁻¹
kd2 (koff, ligand population 2) [4]: 0.0061 s⁻¹
Kd1 (KD, ligand population 1) [5]: 4.2 nM
Kd2 (KD, ligand population 2) [5]: 8.9 nM
kd1 (koff, ligand population 1) [5]: 0.000815 s⁻¹
kd2 (koff, ligand population 2) [5]: 0.0038 s⁻¹

Next, values leading:

EC50 of STAT3 activation (SEAP secretion, QUANTI-Blue assay) in HEK-Blue IL-6 cells stably transfected with human IL-11Rα gene [3]: 0.006 nM
Molecule: macaque recombinant interleukin-11 (rIL-11), Macaca fascicularis, mature protein lacking Pro1 (from UniProt P20808 23-199) (ligand)

EC50 of STAT3 activation (SEAP secretion, QUANTI-Blue assay) in HEK-Blue IL-6 cells stably transfected with human IL-11Rα gene [3]: 0.084 nM
Molecule: murine recombinant interleukin-11 (rIL-11), Mus musculus, mature protein lacking Pro1 (from UniProt P47873 23-199) (ligand)

Kd [6]: 8.9 nM and 4.2 nM
B2: IL-11 (protein)
chain: PGPPPGSPRASPDPRAELDSTVLLTRSLLEDTRQLTIQLKDKFPADGDHNLDSLPTLAMSAGALGALQLPSVLTRLRADLLSYLRHVQWLRRAMGSSLKTLEPELGTLQTRLDRLLRRLQLLMSRLALPQLPPDPPAPPLAPPSSTWGGIRAAHAILGGLHLTLDWAVRGLLLLKTRL
